Measurements published in JP2018158894A (dated 2018).

Target: T1, ヒンジ領域組換えタンパク質 (LGR6 hinge region partial protein, amino acids 446-567, with Trx-, S- and His-tags) (Homo sapiens (Human), UniProt Q9HBX8 446-567)
T1 construct: Used as immunogen and as ELISA antigen; also called LGR6のヒンジ領域部分タンパク質; hinge region recombinant protein; not shown: N-terminal Trx-, S- and His-tag from the pET32b vector; C-terminal His-tag from the pET32b vector
T1 sequence: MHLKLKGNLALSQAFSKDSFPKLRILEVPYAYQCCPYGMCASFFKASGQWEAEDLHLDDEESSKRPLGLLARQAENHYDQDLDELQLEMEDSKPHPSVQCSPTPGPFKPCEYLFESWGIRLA
Assay: Ag-ELISA, hybridoma culture supernatant on coated protein

binding result: binds
B1: m164抗体 (anti-LGR6 mouse monoclonal antibody produced by hybridoma clone 164) (antibody, V domains shown)
VH: EVQLQQSGPELVKPGASVKISCKTSGYTFTEYTMHWVKQSHGKSLEWIGGINPYNRVSSYNQRFKGKATLTVDKSSSTAYMELRSLTSEDSAVYYCARRYDVFDSWGQGTTLTVSS
VL: DIVMSQSPSSLAVSVGEKVSMSCKSSQSLLYSSNQKNYLAWYQQKPGQSPKLLISWASTRESGVPARFTGSGSGTDFTLTISSVRAEDLAVYYCQQHFNYPYTFGGGAKLEMK
notes: Tested as the mouse antibody from the hybridoma (culture supernatant or Protein G purified); the primers used were for mouse IgG1 CH and mouse kappa light chain; also called m164; LGR6抗体m164
